{
  "source": "patent US20090180995A1",
  "about": "“NOVEL ANTICOAGULANT POLYPEPTIDES AND COMPLEX” (National University of Singapore, priority 2005, published 2009)",
  "key": {"Chymotrypsin": {"system": "Chymotrypsin", "assay": "Serine protease specificity, chymotrypsin", "type": "biochemical", "conditions": "chymotrypsin (0.4 nM)/S-2586", "experimental": "(§1) Serine protease specificity—The selectivity profile of anticoagulant proteins and their complex was examined against 12 serine proteases—procoagulant serine proteases (FIXa, FXa, FXIa, FXIIa, plasma kallikrein and thrombin), anticoagulant serine protease (APC), fibrinolytic serine proteases (urokinase, t-PA and plasmin) and classical serine proteases (trypsin and chymotrypsin). Various concentrations of purified hemextin A/hemextin B and reconstituted hemextin AB complex were preincubated with each of the enzymes (Table 1) for a period of five minutes at a temperature of 37° C., followed by the addition of appropriate chromogenic substrate.\n(§2) For studies with FXIa, kallikrein and urokinase, the appropriate substrates were determined prior to their screening against the inhibitors. For FXIa, the Vmax for the amidolytic activity corresponding to the chromogenic substrates S-2266, S-2302 and S-2366 was determined. S-2302 was the substrate with the highest Vmax and thus was used in the screening studies. Similar studies with kallikrein and urokinase were carried out with substrates S-2266, S-2302 and S-2288 for kallikrein and S-2444 and S-2484 for urokinase. In a total volume of 200 μl in the individual wells of the microtiter plate, final concentrations of FVIIa (300 nM)/S-2288, FVIIa-sTF (30 nM)/S-2288, FXa (0.75 nM)/S-2765, α-thrombin (0.66 nM)/S-2238, plasmin (2 nM)/S-2366, FIXa (3 μM)/spectrozyme®fIXa, FXIa (0.34 nM)/S-2366, FXIIa (0.4 nM)/S-2302, recombinant tissue plasminogen activator (80 nM)/S-2288, activated protein C (0.34 nM)/S-2366, urokinase/S-2444, plasma kallikrein (0.4 nM)/S-2302, trypsin (2.17 nM)/S-2222 and chymotrypsin (0.4 nM)/S-2586 were measured. The kinetic rate of substrate hydrolysis (mOD/min) was measured over 5 min."}, "Factor XIIa": {"system": "Factor XIIa", "sequence (P00748 373-615 limits assumed)": "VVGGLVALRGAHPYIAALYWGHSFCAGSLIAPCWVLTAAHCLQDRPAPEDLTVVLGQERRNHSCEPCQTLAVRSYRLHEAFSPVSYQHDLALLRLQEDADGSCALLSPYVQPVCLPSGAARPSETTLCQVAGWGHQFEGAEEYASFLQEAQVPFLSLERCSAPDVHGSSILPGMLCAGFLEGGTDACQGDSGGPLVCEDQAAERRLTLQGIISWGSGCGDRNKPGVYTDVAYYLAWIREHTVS", "assay": "Serine protease specificity, FXIIa", "type": "biochemical", "conditions": "FXIIa (0.4 nM)/S-2302", "experimental": "as §1, §2"}, "Factor XIa": {"molecular_target": "Factor XIa (Homo sapiens, UniProt P03951)", "sequence (P03951 388-625 limits assumed)": "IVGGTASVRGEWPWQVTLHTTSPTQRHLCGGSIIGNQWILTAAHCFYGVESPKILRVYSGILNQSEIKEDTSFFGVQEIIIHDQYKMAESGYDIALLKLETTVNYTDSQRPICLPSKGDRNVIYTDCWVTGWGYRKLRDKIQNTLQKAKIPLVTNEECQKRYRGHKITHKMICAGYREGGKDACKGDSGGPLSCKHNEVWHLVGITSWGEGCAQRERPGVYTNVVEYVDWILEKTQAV", "sequence (P03951 19-387 limits assumed)": "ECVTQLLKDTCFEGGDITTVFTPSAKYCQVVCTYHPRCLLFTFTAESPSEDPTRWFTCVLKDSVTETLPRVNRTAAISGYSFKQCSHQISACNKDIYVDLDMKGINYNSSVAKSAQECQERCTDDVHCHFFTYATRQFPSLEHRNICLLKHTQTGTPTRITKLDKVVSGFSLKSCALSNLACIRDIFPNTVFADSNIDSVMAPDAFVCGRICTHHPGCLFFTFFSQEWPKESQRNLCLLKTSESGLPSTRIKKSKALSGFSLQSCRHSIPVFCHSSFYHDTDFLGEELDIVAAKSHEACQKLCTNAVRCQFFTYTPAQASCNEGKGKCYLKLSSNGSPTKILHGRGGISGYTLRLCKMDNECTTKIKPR", "assay": "Serine protease specificity, FXIa", "type": "biochemical", "conditions": "FXIa (0.34 nM)", "experimental": "as §1, §2"}, "plasma": {"system": "plasma", "assay": "Prothrombin time", "type": "biochemical, human", "conditions": "for anticoagulant activity in buffers of high ionic strength: 50 mM Tris-HCl (pH 7.4) with NaCl 35 mM to 150 mM; for anticoagulant activity, prothrombin time: human plasma, 37° C.", "experimental": "Briefly, prothrombin times may be measured according to the method of Quick (see Quick A J. (1935) J. Biol. Chem. 109, 73-74). 100 μl of 50 mM of Tris-HCl buffer (pH 7.4), 100 μl of plasma and 50 μL of the protein under investigation are to be incubated for 2 min at 37° C. Clotting is initiated by the addition of 150 μL of thromboplastin with calcium reagent.\nAnticoagulant activity—The anticoagulant activities of H. haemachatus venom and its fractions was determined by four coagulation tests using a BBL fibrometer: • 1. Recalcification time: The recalcification times were determined according to the method of Langdell et al. (25). 50 mM Tris-HCl buffer (pH 7.4) (100 μl), plasma (100 μl) and various concentrations of venom or its fraction (50 μl) were preincubated for 2 min at 37° C. Clotting was initiated by the addition of 50 μl of 50 mM CaCl2. • 2. Prothrombin time: The prothrombin times were measured according to the method of Quick (26). 100 μl of 50 mM Tris-HCl buffer (pH 7.4), 100 μl of plasma and 50 μl of venom or its fractions were preincubated for 2 min at 37° C. Clotting was initiated by the addition of thromboplastin with calcium reagent (150 μl) which can be purchased from Sigma (St. Louis, Mo., USA). • For studying the role of electrostatic interactions, the anticoagulant activity of a specific concentration of hemextin A (4.4 μM), hemextin B (4.4 μM) and hemextin AB complex (0.11 μM) was monitored in 50 mM Tris-HCl (pH 7.4) containing various concentrations of NaCl (35 mM to 150 mM). • For studying the role of hydrophobic interactions, the anticoagulant activity of a specific concentration of hemextin A (4.4 μM), hemextin B (4.4 μM) and hemextin AB complex (0.11 μM) was monitored in 50 mM Tris-HCl (pH 7.4) containing various concentrations of glycerol (125 mM to 250 mM). • 2. Stypven time: Stypven time measurements were determined according to the method of Hougie (27). Plasma (100 μl), 50 mM Tris-HCl buffer (pH 7.4) (100 μl) and RVV (0.01 μg in 100 μl) and individual proteins or the reconstituted complex (50 μl) were preincubated for 2 min at 37° C. Clotting was initiated by the addition of 50 mM CaCl2 (50 μl). • 3. Thrombin time: Thrombin time was determined according to the method of Jim (28). Individual proteins or the reconstituted complex were incubated with 100 μl of plasma and 100 μl of 50 mM Tris-HCl buffer (pH 7.4) for 2 min at 37° C. in a total volume 250 μl. Clotting was initiated by the addition of standard thrombin reagent (0.01 NIH units in 50 μl)."}, "FVIIa": {"molecular_target": "T1, FVIIa (Homo sapiens, UniProt P08709)", "T1 construct": "from tissue; host or cells: human plasma", "T1 sequence (P08709 61-212 limits assumed)": "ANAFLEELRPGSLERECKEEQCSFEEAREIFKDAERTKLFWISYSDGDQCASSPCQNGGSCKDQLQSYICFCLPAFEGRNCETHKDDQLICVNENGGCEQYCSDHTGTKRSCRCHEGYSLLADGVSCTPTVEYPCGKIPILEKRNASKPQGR", "T1 sequence (P08709 213-466 limits assumed)": "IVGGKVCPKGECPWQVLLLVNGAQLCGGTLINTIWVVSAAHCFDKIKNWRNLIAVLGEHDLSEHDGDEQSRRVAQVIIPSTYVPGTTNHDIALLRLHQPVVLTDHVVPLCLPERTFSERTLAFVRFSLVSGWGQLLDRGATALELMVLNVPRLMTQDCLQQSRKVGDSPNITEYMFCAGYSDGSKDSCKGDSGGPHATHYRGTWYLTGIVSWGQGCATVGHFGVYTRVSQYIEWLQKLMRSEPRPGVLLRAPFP", "assay": "FVIIa amidolytic activity", "type": "biochemical", "conditions": "absence of sTF; for inhibition of FVIIa amidolytic activity: FVIIa (300 nM)/S-2288", "experimental": "as §1, §2"}, "Thrombin": {"molecular_target": "T2, Thrombin (Homo sapiens, UniProt P00734)", "T2 construct": "FXa performs a proteolytic cleavage of prothrombin to thrombin", "assay": "Serine protease specificity, thrombin", "type": "biochemical", "conditions": "α-thrombin (0.66 nM)/S-2238", "experimental": "as §1, §2"}, "FXa": {"molecular_target": "FXa (Homo sapiens, UniProt P00742)", "sequence (P00742 41-179 limits assumed)": "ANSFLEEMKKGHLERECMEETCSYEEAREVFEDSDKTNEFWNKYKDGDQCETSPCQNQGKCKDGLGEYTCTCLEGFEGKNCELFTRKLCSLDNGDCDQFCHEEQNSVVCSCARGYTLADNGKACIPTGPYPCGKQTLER", "sequence (P00742 235-488 limits assumed)": "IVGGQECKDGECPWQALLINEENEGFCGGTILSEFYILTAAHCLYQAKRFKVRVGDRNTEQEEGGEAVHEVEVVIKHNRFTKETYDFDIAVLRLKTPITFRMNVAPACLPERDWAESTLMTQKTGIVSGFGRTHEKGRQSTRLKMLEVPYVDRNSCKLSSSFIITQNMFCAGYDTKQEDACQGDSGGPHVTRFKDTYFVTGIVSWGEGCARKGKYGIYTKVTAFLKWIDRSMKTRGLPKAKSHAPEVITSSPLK", "assay": "Serine protease specificity, FXa", "type": "biochemical", "conditions": "FXa (0.75 nM)/S-2765", "experimental": "as §1, §2"}},
  "note": "Entries after “also recorded” stand apart in the source; their conditions may differ.",
  "data": [
    {"molecule": "hemextin A (protein) LKCKNKLVPFLSKTCPEGKNLCYKMTMLKMPKIPIKRGCTDACPKSSLLVKVVCCNKDKCN", "values": [
      {"measurement": "Observed Effect, chymotrypsin amidolytic activity", "setting": "Chymotrypsin", "value": "no inhibitory activity"},
      {"measurement": "Observed Effect, Factor XIIa amidolytic activity", "setting": "Factor XIIa", "value": "no inhibitory activity"},
      {"measurement": "Observed Effect, Factor XIa amidolytic activity", "setting": "Factor XIa", "value": "no inhibitory activity"},
      {"measurement": "anticoagulant activity in buffers of high ionic strength", "setting": "plasma", "value": "did not affect the anticoagulant activity"},
      {"measurement": "anticoagulant activity, prothrombin time", "setting": "plasma", "value": "mild anticoagulant activity"},
      {"measurement": "IC50", "setting": "FVIIa", "value": "~105", "unit": "nM"},
      {"measurement": "inhibition of FVIIa amidolytic activity", "setting": "FVIIa", "value": "potent inhibitory activity"},
      {"measurement": "Observed Effect, thrombin amidolytic activity", "setting": "Thrombin", "value": "no inhibitory activity"},
      {"measurement": "Observed Effect, FXa amidolytic activity", "setting": "FXa", "value": "no inhibitory activity"}
    ]},
    {"molecule": "hemextin B (protein) LKCKNKVVPFLKCKNKVVPFLCYKMTLKKVPKIPIKRGCTDACPKSSLLVNVMCCKTDKCN", "values": [
      {"measurement": "Observed Effect, chymotrypsin amidolytic activity", "setting": "Chymotrypsin", "value": "no inhibitory activity"},
      {"measurement": "Observed Effect, Factor XIIa amidolytic activity", "setting": "Factor XIIa", "value": "no inhibitory activity"},
      {"measurement": "Observed Effect, Factor XIa amidolytic activity", "setting": "Factor XIa", "value": "no inhibitory activity"},
      {"measurement": "anticoagulant activity of hemextin A with increasing hemextin B concentrations", "setting": "plasma; hemextin A constant at 4.4 μM", "value": "increases with the increasing concentrations of hemextin B until the ratio reaches 1:1"},
      {"measurement": "anticoagulant activity, prothrombin time", "setting": "plasma", "value": "did not show any significant effect on clotting time; also recorded: did not prolong clotting times; also recorded: no anticoagulant activity"},
      {"measurement": "inhibition of FVIIa amidolytic activity", "setting": "FVIIa", "value": "did not exhibit any inhibitory activity"},
      {"measurement": "Observed Effect, thrombin amidolytic activity", "setting": "Thrombin", "value": "no inhibitory activity"},
      {"measurement": "Observed Effect, FXa amidolytic activity", "setting": "FXa", "value": "no inhibitory activity"}
    ]},
    {"molecule": "hemextin AB complex: synergistic 1:1 tetrameric complex of hemextin A and hemextin B, reconstituted from equimolar proteins (protein) chain 1: LKCKNKLVPFLSKTCPEGKNLCYKMTMLKMPKIPIKRGCTDACPKSSLLVKVVCCNKDKCN chain 2: LKCKNKVVPFLKCKNKVVPFLCYKMTLKKVPKIPIKRGCTDACPKSSLLVNVMCCKTDKCN", "values": [
      {"measurement": "Observed Effect, chymotrypsin amidolytic activity", "setting": "Chymotrypsin", "value": "no inhibitory activity"},
      {"measurement": "Observed Effect, Factor XIIa amidolytic activity", "setting": "Factor XIIa", "value": "no inhibitory activity"},
      {"measurement": "Observed Effect, Factor XIa amidolytic activity", "setting": "Factor XIa", "value": "no inhibitory activity"},
      {"measurement": "anticoagulant activity in buffers of high ionic strength", "setting": "plasma", "value": "decreased with the increase in ionic strength up to 100 mM NaCl"},
      {"measurement": "anticoagulant activity in buffers containing glycerol", "setting": "plasma; 50 mM Tris-HCl (pH 7.4) with glycerol 125 mM to 250 mM", "value": "decreased with the increase in glycerol concentration"},
      {"measurement": "anticoagulant activity at 125 mM glycerol", "setting": "plasma; 125 mM glycerol", "value": "no decrease in the anticoagulant activity"},
      {"measurement": "anticoagulant activity at 250 mM glycerol", "setting": "plasma; 250 mM glycerol", "value": "higher than that of anticoagulant effect of hemextin A alone"},
      {"measurement": "anticoagulant activity, prothrombin time", "setting": "plasma", "value": "potent anticoagulant activity"},
      {"measurement": "anticoagulant activity, prothrombin time", "setting": "plasma; listed as equimolar mixture of hemextin A and B", "value": "more potent anticoagulant activity"},
      {"measurement": "IC50", "setting": "FVIIa", "value": "~105", "unit": "nM"},
      {"measurement": "inhibition of FVIIa amidolytic activity", "setting": "FVIIa", "value": "potent inhibitory activity"},
      {"measurement": "Observed Effect, thrombin amidolytic activity", "setting": "Thrombin", "value": "no inhibitory activity"},
      {"measurement": "Observed Effect, FXa amidolytic activity", "setting": "FXa", "value": "no inhibitory activity"}
    ]}
  ]
}
